# Patent US20200181259A1 (Innovent, published 2020)
# Positions count from the first letter of the chain named.
# T1: mouse CD47-Fc (mouse, UniProt Q61735 19-140, limits assumed)
# T1 construct: not shown: Fc part
# T1 sequence (looked up): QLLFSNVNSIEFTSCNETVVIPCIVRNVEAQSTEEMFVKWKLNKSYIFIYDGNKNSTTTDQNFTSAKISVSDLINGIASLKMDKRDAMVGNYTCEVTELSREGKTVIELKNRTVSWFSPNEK
# B1: ADI-26624 in IgG1 format produced in yeast cells (antibody)
# heavy: not shown
# light: DIQMTQSPSSVSASVGDRVTITCRASQGISRWLAWYQQKPGKAPKLLIYAASSLQSGVPSRFSGSGSGTDFTLTISSLQPEDFATYYCQQADLHPPLTFGGGTKVEIKRTVAAPSVFIFPPSDEQLKSGTASVVCLLNNFYPREAKVQWKVDNALQSGNSQESVTEQDSKDSTYSLSSTLTLSKADYEKHKVYACEVTHQGLSSPVTKSFNRGEC
# notes: also called ADI26624-IgG1
# B2: ADI-29336 in IgG1 format produced in yeast cells (antibody)
# heavy: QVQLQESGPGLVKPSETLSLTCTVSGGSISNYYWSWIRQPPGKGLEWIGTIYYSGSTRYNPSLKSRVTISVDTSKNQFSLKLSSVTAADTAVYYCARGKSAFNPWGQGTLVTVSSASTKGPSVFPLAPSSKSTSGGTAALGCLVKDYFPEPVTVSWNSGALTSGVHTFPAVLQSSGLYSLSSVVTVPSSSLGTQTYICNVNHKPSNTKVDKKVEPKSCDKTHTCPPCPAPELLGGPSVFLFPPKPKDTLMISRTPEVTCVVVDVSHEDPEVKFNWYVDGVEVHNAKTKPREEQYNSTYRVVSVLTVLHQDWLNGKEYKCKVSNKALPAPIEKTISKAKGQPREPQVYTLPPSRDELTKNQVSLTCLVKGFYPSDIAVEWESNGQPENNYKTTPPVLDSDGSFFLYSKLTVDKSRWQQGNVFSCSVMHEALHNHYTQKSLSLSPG
# light: B1 light
# notes: also called ADI29336-IgG1
# B3: ADI-29336 in IgG4 format produced in CHO cells (antibody)
# heavy: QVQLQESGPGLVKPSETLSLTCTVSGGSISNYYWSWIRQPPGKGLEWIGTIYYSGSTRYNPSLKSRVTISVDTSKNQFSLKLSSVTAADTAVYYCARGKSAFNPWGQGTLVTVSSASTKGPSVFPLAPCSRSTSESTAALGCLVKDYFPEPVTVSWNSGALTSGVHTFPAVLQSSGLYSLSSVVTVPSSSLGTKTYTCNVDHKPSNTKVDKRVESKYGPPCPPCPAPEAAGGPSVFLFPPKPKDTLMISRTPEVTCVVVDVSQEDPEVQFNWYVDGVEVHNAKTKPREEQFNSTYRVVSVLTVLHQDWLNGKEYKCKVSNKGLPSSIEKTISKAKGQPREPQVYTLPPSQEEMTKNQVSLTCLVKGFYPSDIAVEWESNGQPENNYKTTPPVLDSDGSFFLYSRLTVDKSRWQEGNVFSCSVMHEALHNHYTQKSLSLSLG
# light: B1 light
# notes: also called ADI29336-IgG4
# B4: ADI-29341 in IgG1 format produced in yeast cells (antibody)
# heavy: not shown
# light: DIQMTQSPSSVSASVGDRVTITCRASQGISRWLAWYQQKPGKAPKLLIYAASSLQSGVPSRFSGSGSGTDFTLTISSLQPEDFATYYCQQTVSFPITFGGGTKVEIKRTVAAPSVFIFPPSDEQLKSGTASVVCLLNNFYPREAKVQWKVDNALQSGNSQESVTEQDSKDSTYSLSSTLTLSKADYEKHKVYACEVTHQGLSSPVTKSFNRGEC
# notes: also called ADI29341-IgG1
# B5: ADI-29371 in IgG4 format produced in CHO cells (antibody)
# heavy: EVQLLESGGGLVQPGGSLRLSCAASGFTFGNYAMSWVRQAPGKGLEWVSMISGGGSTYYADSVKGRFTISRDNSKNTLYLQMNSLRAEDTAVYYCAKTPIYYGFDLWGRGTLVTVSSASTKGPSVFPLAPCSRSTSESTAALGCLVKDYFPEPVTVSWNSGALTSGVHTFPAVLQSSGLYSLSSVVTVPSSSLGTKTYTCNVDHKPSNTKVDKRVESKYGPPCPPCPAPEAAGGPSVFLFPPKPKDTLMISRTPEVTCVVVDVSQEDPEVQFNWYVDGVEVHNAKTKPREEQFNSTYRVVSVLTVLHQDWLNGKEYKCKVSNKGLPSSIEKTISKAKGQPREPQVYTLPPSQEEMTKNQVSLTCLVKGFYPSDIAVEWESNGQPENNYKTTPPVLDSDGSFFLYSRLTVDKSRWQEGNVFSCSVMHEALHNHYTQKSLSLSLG
# light: B4 light with M4L, R31S, A50G, T91K, V92N, S93P, I96P
# notes: also called ADI 29371-IgG4
# B6: ADI-29341 in IgG4 format produced in CHO cells (antibody)
# heavy: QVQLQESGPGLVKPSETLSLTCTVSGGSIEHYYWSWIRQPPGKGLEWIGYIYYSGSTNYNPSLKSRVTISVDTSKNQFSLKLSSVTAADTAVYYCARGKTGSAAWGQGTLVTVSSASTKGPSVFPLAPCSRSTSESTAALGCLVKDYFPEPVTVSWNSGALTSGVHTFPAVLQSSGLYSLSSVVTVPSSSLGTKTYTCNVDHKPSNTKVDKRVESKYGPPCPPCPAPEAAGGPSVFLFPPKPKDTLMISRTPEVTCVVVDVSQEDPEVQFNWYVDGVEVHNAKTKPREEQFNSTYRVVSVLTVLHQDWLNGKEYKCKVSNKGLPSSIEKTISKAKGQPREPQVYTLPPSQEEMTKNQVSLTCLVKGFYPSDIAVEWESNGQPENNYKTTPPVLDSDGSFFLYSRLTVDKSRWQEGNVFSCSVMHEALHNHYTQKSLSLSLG
# light: B4 light
# notes: also called ADI29341-IgG4
# B7: ADI-29371 in IgG1 format produced in yeast cells (antibody)
# heavy: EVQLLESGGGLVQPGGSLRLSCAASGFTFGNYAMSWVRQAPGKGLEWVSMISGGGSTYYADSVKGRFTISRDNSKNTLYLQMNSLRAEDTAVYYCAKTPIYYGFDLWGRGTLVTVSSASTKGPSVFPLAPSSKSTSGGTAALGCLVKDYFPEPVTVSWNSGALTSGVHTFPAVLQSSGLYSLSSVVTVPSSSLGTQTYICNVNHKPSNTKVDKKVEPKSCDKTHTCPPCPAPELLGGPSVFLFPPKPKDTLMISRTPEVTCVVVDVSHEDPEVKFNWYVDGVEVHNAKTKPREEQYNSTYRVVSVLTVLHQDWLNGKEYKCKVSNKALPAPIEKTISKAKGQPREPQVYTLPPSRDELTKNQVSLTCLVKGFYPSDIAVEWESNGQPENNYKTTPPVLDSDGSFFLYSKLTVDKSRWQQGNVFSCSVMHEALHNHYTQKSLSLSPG
# light: B4 light with M4L, R31S, A50G, T91K, V92N, S93P, I96P
# notes: also called ADI 29371-IgG1
# B8: ADI-30794 in IgG1 format produced in yeast cells (antibody, V domains shown)
# VH: EVQLLESGGGLVQPGGSLRLSCAASGFTFGNYAMSWVRQAPGKGLEWVSAISGSGGKTYYADSVKGRFTISRDNSKNTLYLQMNSLRAEDTAVYYCAKTAIYYGFDLWGRGTLVTVSS
# VL: DIQLTQSPSSVSASVGDRVTITCRASQGISSWLAWYQQKPGKAPKLLIYGASSLQSGVPSRFSGSGSGTDFTLTISSLQPEDFATYYCQQKNPFPPFFGGGTKVEIKR
# notes: also called ADI 30794-IgG1
# B9: ADI-30793 in IgG1 format produced in yeast cells (antibody, V domains shown)
# VH: B8 VH with G30D, N31S, S35T, A50V, A100H, I101L
# VL: B8 VL
# notes: also called ADI 30793-IgG1
# B10: ADI-26591 in IgG1 format, expressed in yeast (antibody, V domains shown)
# VH: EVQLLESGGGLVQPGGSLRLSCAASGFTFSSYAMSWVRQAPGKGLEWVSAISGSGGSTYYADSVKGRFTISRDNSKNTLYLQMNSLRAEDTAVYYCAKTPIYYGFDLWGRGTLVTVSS
# VL: B8 VL with F97T
# notes: also called ADI 26591-IgG1
# B11: ADI-26624 in IgG4 format produced in CHO cells (antibody)
# heavy: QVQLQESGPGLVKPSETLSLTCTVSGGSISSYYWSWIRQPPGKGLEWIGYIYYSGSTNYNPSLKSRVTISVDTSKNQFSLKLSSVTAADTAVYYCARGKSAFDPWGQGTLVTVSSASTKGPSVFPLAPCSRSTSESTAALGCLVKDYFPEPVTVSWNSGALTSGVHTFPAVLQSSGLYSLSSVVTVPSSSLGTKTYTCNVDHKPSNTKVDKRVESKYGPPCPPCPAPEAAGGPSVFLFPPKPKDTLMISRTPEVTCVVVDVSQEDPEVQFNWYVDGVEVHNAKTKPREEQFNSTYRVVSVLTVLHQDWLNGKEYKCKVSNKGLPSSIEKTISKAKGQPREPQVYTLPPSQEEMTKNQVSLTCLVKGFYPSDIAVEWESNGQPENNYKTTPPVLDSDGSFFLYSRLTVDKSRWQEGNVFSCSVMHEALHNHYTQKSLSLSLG
# light: B1 light
# notes: also called ADI26624-IgG4
# B12: ADI-26624 in Fab format (Fab, V domains shown)
# VH: QVQLQESGPGLVKPSETLSLTCTVSGGSISSYYWSWIRQPPGKGLEWIGYIYYSGSTNYNPSLKSRVTISVDTSKNQFSLKLSSVTAADTAVYYCARGKSAFDPWGQGTLVTVSS
# VL: DIQMTQSPSSVSASVGDRVTITCRASQGISRWLAWYQQKPGKAPKLLIYAASSLQSGVPSRFSGSGSGTDFTLTISSLQPEDFATYYCQQADLHPPLTFGGGTKVEIKR
# B13: ADI-29336 in Fab format (Fab, V domains shown)
# VH: B12 VH with S31N, Y50T, N58R, D103N
# VL: B12 VL
# B14: ADI-30793 in Fab format (Fab, V domains shown)
# VH: B8 VH with G30D, N31S, S35T, A50V, A100H, I101L
# VL: B8 VL
# B15: ADI-29341 in Fab format (Fab, V domains shown)
# VH: B12 VH with S30E, S31H, S100T, A101G, F102S, D103A, P104A
# VL: B8 VL with L4M, S31R, G50A, K91T, N92V, P93S, P96I, F97T
# B16: ADI-29371 in Fab format (Fab, V domains shown)
# VH: EVQLLESGGGLVQPGGSLRLSCAASGFTFGNYAMSWVRQAPGKGLEWVSMISGGGSTYYADSVKGRFTISRDNSKNTLYLQMNSLRAEDTAVYYCAKTPIYYGFDLWGRGTLVTVSS
# VL: B8 VL with F97T
# B17: ADI-30794 in Fab format (Fab, V domains shown)
# VH: B8 VH
# VL: B8 VL
# Target: T2, human CD47 overexpressed on CHO cells (human, UniProt Q08722 19-292)
# T2 construct: CHO cells transfected with pCHO1.0 bearing a human CD47 cDNA (Sino Biological); also called hCD47; CHO-hCD47 cells
# Assay: flow cytometry on CHO-hCD47 cells, PE anti-human IgG
# Experimental: Then the cells were washed at least two times and incubated with a secondary antibody (PE-labelled goat anti-human IgG antibody, Southern Biotech, final concentration of 5 μg/ml) in PBS with 0.1% BSA on ice for 30 min (in dark). The cells were washed at least two times and analyzed by flow cytometry. Flow cytometry was performed on Accuri C6 System (BD Biosciences) and a concentration-dependent graph was fitted with GraphPad, according to MFI of the cells.
row,EC50,Binder
1,2.25 nM,B1
2,6.72 nM,B2
3,2.48 nM,B3
4,3.34 nM,B4
5,2.31 nM,B5
6,1.89 nM,B6
7,2.13 nM,B7
8,3.7 nM,B8
9,2.92 nM,B9
10,3.77 nM,B10

# Target: T2, human CD47 overexpressed on CHO cells
# Assay: flow cytometry competition on CHO-hCD47 cells against 200 nM mouse Fc-labelled SIRPα
# Experimental: Then the cells were washed 3 times and subsequently incubated with a secondary antibody, goat-anti-mouse IgG-APC (Allophycocyanin) (Biolegend), in PBS with 0.1% BSA on ice for 30 min (in dark). Cells were washed 3 times. Flow cytometry assay was performed on Accuri C6 System (BD Biosciences) and MFI was calculated with C6 software.
row,IC50,Binder
1,11.2 nM,B1
2,1.04 nM,B11
3,8.55 nM,B2
4,1.39 nM,B3
5,2.48 nM,B4
6,0.604 nM,B6

# Target: T1, mouse CD47-Fc
# Assay: bio-light interferometry (ForteBio), IgG1 on AHQ tip, mouse CD47-Fc in solution, bivalent
row,binding result,Binder
1,no binding (tested: 100 nM),B1
2,no binding (tested: 100 nM),B2
3,no binding (tested: 100 nM),B4
4,no binding (tested: 100 nM),B7
5,no binding (tested: 100 nM),B8
6,no binding (tested: 100 nM),B10

# Target: T3, Human CD47-Fc (human, UniProt Q08722 19-139, limits assumed)
# T3 construct: the whole entry is named here; also called human CD47 (hCD47); CD47 antigen; not shown: Fc part
# Assay: bio-light interferometry (ForteBio), IgG1 on AHQ tip, human CD47-Fc 100 nM in solution, bivalent
row,Kd,Binder
1,1.05 nM,B1
2,0.477 nM,B2
3,0.501 nM,B4
4,1.95 nM,B7
5,0.562 nM,B8
6,0.632 nM,B9
7,5.38 nM,B10

# Target: T1, mouse CD47-Fc
# Assay: bio-light interferometry (ForteBio), IgG1 on AHQ tip, mouse CD47-Fc 100 nM in solution, bivalent
# Experimental: In brief, Sensors were equilibrated off-line in assay buffer for 30 min and then tested on-line for 60 sec to establish the base line. The purified antibody obtained as described above was loaded on-line onto AHQ sensor (ForteBio) to perform ForteBio affinity measurement. Then, the sensor loaded with the antibody was exposed to 100 nM of CD47 antigen for 5 min, followed by transferring the sensor into the assay buffer for 5 min to measure the dissociation rate. A kinetics analysis was performed using the 1:1 binding model.
row,Kd,Binder
1,4.57 nM,B9

# Target: T3, Human CD47-Fc
# Assay: bio-light interferometry (ForteBio), human CD47-Fc on AHQ tip, Fab 100 nM in solution, monovalent
row,Kd,Binder
1,65.8 nM,B12
2,1.32 nM,B13
3,9.34 nM,B14
4,4.62 nM,B15
5,218 nM,B16
6,3.13 nM,B17

# Target: T4, cynomolgus CD47-Fc (cynomolgus, UniProt A0A2K5X523 19-139)
# T4 construct: not shown: Fc part
# Assay: bio-light interferometry (ForteBio), IgG1 on AHQ tip, cynomolgus CD47-Fc 100 nM in solution, bivalent
row,Kd,Binder
1,0.544 nM,B2
2,1.41 nM,B7
3,0.584 nM,B9
4,3.39 nM,B10
